Test results from IntAct's records for PubMed 15169891.

Each substance was assayed against wasl_bovin WASL (UniProt Q95107).
Sequence of wasl_bovin WASL (Q95107 whole entry): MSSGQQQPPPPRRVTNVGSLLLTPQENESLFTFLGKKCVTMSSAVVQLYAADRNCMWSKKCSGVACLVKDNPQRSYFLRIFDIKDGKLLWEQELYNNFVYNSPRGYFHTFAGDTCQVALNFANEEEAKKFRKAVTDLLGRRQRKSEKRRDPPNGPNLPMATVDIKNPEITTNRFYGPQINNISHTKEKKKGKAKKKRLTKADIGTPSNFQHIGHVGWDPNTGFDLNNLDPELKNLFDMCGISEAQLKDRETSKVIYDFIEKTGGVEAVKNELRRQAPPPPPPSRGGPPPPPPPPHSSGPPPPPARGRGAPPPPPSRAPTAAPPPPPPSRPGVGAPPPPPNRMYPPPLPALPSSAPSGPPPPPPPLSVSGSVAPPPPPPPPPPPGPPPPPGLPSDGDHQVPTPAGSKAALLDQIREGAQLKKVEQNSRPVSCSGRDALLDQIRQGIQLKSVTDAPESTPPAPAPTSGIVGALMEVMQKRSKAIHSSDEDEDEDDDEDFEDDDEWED

Sequence of Src substrate cortactin (Mus musculus), Q60598 S405D;P416D;Y466D;Y482D (Q60598 whole entry S405D/P416D/Y466D/Y482D): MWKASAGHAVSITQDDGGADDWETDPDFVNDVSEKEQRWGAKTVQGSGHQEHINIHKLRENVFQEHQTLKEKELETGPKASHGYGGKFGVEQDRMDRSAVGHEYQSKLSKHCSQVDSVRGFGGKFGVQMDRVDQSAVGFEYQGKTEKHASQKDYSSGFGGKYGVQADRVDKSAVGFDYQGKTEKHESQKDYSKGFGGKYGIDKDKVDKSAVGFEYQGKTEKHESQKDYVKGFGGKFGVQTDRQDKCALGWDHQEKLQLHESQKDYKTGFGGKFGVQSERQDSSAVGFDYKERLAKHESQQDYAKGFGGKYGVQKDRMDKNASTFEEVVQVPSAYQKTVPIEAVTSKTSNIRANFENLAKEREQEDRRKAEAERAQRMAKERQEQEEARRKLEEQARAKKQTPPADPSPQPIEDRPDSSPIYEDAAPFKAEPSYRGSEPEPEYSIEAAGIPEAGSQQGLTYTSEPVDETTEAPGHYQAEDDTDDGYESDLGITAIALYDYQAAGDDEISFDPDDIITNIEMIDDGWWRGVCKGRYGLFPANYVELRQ
Sequence of Src substrate cortactin (Mus musculus), Q60598 Y466D;Y482D (Q60598 whole entry Y466D/Y482D): as the sequence (Q60598 whole entry S405D/P416D/Y466D/Y482D) above, with D405S, D416P counted along it
Sequence of Src substrate cortactin (Mus musculus), Q60598 W525K (Q60598 whole entry W525K): as the sequence (Q60598 whole entry S405D/P416D/Y466D/Y482D) above, with D405S, D416P, D466Y, D482Y, W525K counted along it
Sequence of Src substrate cortactin (Mus musculus), Q60598 S405D;S418D (Q60598 whole entry S405D/S418D): as the sequence (Q60598 whole entry S405D/P416D/Y466D/Y482D) above, with D416P, S418D, D466Y, D482Y counted along it

Substance | effect of a mutation on the interaction
Src substrate cortactin (Mus musculus), Q60598 S405D;P416D;Y466D;Y482D | decreasing interaction
Src substrate cortactin (Mus musculus), Q60598 S405D;S418D | increasing interaction
Src substrate cortactin (Mus musculus), Q60598 W525K | disrupting interaction
Src substrate cortactin (Mus musculus), Q60598 Y466D;Y482D | decreasing interaction
